Laboratory results from US20130230533A1 (Regeneron, published 2013).
Substitutions are numbered along the chain they refer to. Names may count otherwise.

Columns and labels:
[1] = biological target: T1, monomeric monkey CD48 expressed with a tag consisting of 2 myc and one 6-His epitopes (monkey); test: competition ELISA; blocks mfCD48-mmH binding to coated h2B4-hFc
T1 construct: also called mfCD48-mmH; Monomeric monkey CD48-mmH
T1 chain: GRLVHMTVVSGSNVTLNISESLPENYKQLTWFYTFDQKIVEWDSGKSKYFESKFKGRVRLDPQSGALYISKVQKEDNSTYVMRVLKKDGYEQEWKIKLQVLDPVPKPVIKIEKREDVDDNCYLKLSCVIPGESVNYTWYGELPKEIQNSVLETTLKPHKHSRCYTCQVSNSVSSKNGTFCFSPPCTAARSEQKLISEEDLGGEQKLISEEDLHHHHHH
Experimental: (§1) The ability of human anti-CD48 monoclonal antibodies to block human CD48 and monkey CD48 binding to the human cognate ligand, human 2B4, was measured using a competition sandwich ELISA (Table 8). Constant amounts of biotinylated dimeric human CD48 protein expressed as a fusion with mouse IgG2a Fc (“bio-hCD48-mFc” [SEQ ID NO: 387]) or monomeric monkey CD48 expressed with a tag consisting of 2 myc and one 6-His epitopes (“mfCD48-mmH” [SEQ ID NO: 386]) were separately titrated with varying amounts of antibodies. These antibody-protein complexes were incubated (1 hr, 25° C.) before being transferred to microtiter plates coated with a dimeric construct expressing the human 2B4 receptor fused to a either human IgG1 (h2B4-hFc [R&D Systems, Inc., Minneapolis, Minn., Cat. No. 1039-2B]) or mouse IgG2a Fc (h2B4-mFc [SEQ ID NO: 389). After a 1 hr at 25° C. the wells were washed and bound human CD48 was detected with streptavidin conjugated with horse-radish peroxidase (HRP), and monkey CD48 was detected with an HRP conjugated anti-myc polyclonal antibody. The ELISA was developed with a TMB solution to produce a colorimetric reaction and quenched with sulfuric acid before reading absorbance at 450 nm on a Victor X5 plate reader. Sigmoidal dose response curves were fit to the data using Prism™ software. […] (Tables 8 and 9, NB=no binding observed)

[2] = biological target: T2, biotinylated dimeric human CD48 protein expressed as a fusion with mouse IgG2a Fc (human, biotinylated); test: competition ELISA; blocks bio-hCD48-mFc binding to coated h2B4-hFc
T2 construct: also called bio-hCD48-mFc; Dimeric human CD48-mFc
T2 chain: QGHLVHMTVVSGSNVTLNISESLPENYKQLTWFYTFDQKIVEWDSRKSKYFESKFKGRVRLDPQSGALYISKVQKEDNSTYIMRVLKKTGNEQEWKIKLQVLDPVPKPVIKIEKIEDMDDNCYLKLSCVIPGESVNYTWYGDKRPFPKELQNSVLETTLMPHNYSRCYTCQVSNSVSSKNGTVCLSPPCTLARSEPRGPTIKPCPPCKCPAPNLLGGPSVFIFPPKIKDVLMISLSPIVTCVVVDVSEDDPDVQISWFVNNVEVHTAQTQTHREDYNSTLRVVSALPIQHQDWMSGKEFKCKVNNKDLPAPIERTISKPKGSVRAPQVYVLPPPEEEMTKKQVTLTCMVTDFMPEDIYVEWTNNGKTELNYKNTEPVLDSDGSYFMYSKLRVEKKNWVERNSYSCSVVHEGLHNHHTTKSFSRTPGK
Experimental: as §1

[3] = biological target: T3, human CD48 (on primary human peripheral blood mononuclear cells) (human, UniProt P09326 27-220); test: cell-based or functional assay
T3 sequence: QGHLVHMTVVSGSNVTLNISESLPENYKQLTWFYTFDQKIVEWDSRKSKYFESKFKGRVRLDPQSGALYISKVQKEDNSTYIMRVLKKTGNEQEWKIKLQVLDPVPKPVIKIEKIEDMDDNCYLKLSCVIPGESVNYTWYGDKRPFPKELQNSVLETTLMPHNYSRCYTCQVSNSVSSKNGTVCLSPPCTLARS

[4] = biological target: T2, biotinylated dimeric human CD48 protein …; test: competition ELISA; blocks bio-hCD48-mFc binding to coated h2B4-mFc
Experimental: as §1

[5] = biological target: T3, human CD48 (on primary human peripheral …); test: cell-based or functional assay; remark: listed apart in the source
[6] = biological target: T1, monomeric monkey CD48 expressed with a …; test: competition ELISA; blocks mfCD48-mmH binding to coated h2B4-mFc
Experimental: as §1

[7] = biological target: T3, human CD48 (on primary human peripheral …); test: cell-based or functional assay; remark: listed apart in the source
[8] = biological target: T3, human CD48 (on primary human peripheral …); test: cell-based or functional assay; remark: listed apart in the source
[9] = biological target: T3, human CD48 (on primary human peripheral …); test: cell-based or functional assay; remark: listed apart in the source

B1: H2M1811N (antibody, mouse IgG2, V domains shown)
VH: QVQLVQSGAEAREPGASVRVSCKASGYTFTDYFIHWVRQAPGQGLEWMGWINPNSGATNFAQKFQGRVTMTRDTSLITAYMDLSRLKSDDAAVFYCARDVDGSGWYLDFWGQGTLVTVSS
VL: EIVLTQSPATLSLSPGERATLSCRASQSVSIYLAWYQQKPGQAPRLLIYDASNRATGIPARFSGSGSGTDFTLTISRLEPEDFAVYYCQQRSDWPPSITFGQGTRLEIK
notes: Human variable domains, mouse IgG2 Fc (H2M)
- IC50 [1]: 0.22 nM
- IC50 [2]: 0.49 nM
- Inhibition of IFN-gamma Release IC50; Donor 1 [3]: 9.1e-11 Molar
- Inhibition of IFN-gamma Release IC50; Donor 2 [3]: 4.6e-10 Molar
- Inhibition of IFN-gamma Release IC50; Donor 3 [3]: 8.3e-11 Molar
- Inhibition of IFN-gamma Release IC50; Donor 4 [3]: 4.8e-10 Molar
- Inhibition of IFN-gamma Release IC50; Donor 5 [3]: 9.4e-11 Molar

B2: H2M1707N (antibody, V domains shown)
VH: EGQLLESGGGLAQPGGSLRLSCAASGITFGRYAMSWVRQAPGKGLEWVSLISGSGGSTYHADSVKGRFTISRDNSKNTLYLQMNSLRAEDTAVYYCAIYNNYNWFDPWGQGTLVTVSS
VL: EIVLTQSPGTLSLSPGERATLSCRASQSVSSNYLAWYQQKPGQAPRLLIYDASSRATDIPDRFSGSGSGTDFTLTISRLEPEDFAVYYCQQYGSSPRTFGQGTKVEIK
notes: as for B1
- IC50 [1]: 0.023 nM
- IC50 [2]: 0.022 nM
- IC50 [4]: 0.0086 nM
- Inhibition of IFN-gamma Release IC50; Donor 1 [3]: 4.9e-11 Molar
- Inhibition of IFN-gamma Release IC50; Donor 2 [3]: 3e-11 Molar
- Inhibition of IFN-gamma Release IC50; Donor 3 [3]: 1.1e-10 Molar
- Inhibition of IFN-gamma Release IC50; Donor 4 [3]: 1.7e-10 Molar
- Inhibition of IFN-gamma Release IC50; Donor 5 [3]: 1.5e-11 Molar
- Inhibition of IFN-gamma Release IC50; Donor 6 [5]: 9.3e-12 Molar
- Inhibition of IFN-gamma Release IC50; Donor 7 [5]: 1.9e-11 Molar
- IC50 [6]: 0.0049 nM

B3: H2M1709N (antibody, mouse IgG2, V domains shown)
VH: QVQLVQSGAEVKKPGASVKVSCKVSGYTLTELSIHWVRQAPGKGLEWMGGFDPEDGETIYAQKFQGRVNMTEDTSTDTAYMELSSLRSDDTTVYFCASLLPYFDYWGQGTLVTVSS
VL: B2 VL with N32S, D51G, D58G, T75S, Y88F, P96M, R97Y, V105L
notes: as for B1
- IC50 [1]: 0.12 nM
- IC50 [2]: 0.045 nM
- Inhibition of IFN-gamma Release IC50; Donor 1 [3]: 4.8e-11 Molar
- Inhibition of IFN-gamma Release IC50; Donor 2 [3]: 5.7e-11 Molar
- Inhibition of IFN-gamma Release IC50; Donor 3 [3]: 1.2e-10 Molar
- Inhibition of IFN-gamma Release IC50; Donor 4 [3]: 1.1e-10 Molar
- Inhibition of IFN-gamma Release IC50; Donor 5 [3]: 3.2e-11 Molar

B4: H4H1789Pa (antibody, V domains shown)
VH: EVQLLESGGGLVHPGGSLRLSCAASGFTFGGYAMSWVRQAPGKGLEWVSLISGSGGSTYYADSVKGRFTIFRDNSKNTLYLQMISLRAEDSAVYYCAKYSNYDYFDPWGQGTLVTVSS
VL: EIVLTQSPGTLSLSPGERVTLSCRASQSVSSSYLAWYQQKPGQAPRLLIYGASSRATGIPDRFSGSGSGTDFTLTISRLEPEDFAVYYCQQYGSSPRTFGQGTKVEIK
notes: Human IgG4 Fc (H4H)
- IC50 [4]: 0.053 nM
- Inhibition of IFN-gamma Release IC50; Donor 8 [7]: 3.7e-11 Molar
- Inhibition of IFN-gamma Release IC50; Donor 9 [7]: 1.6e-11 Molar
- Inhibition of IFN-gamma Release IC50; Donor 10 [7]: 1.3e-11 Molar
- Inhibition of IFN-gamma Release IC50; Donor 11 [7]: 1.3e-11 Molar
- IC50 of IFNγ release, MLR; D1 [8]: ~0.0014 nM
- IC50 of IFNγ release, MLR; D2 [8]: ~0.0093 nM
- IC50 of IFNγ release, MLR; D4 [8]: 0.23 nM
- IC50 of IFNγ release, MLR; D5 [8]: ~0.09 nM
- IC50 of IFNγ release, MLR; D6 [8]: 0.0028 nM
- IC50 of IFNγ release, MLR; D8 [8]: 0.029 nM
- IC50 of IFNγ release, MLR; D9 [8]: 0.18 nM
- IC50 of IFNγ release, MLR; D10 [8]: ~0.05 nM
- IC50 of IFNγ release, MLR; D11 [8]: ~0.092 nM
- IC50 of IFNγ release, MLR; D12 [8]: ~0.3 nM
- IC50 of IFNγ release, MLR; D13 [8]: ~0.096 nM
- IC50 of IFNγ release, MLR; D14 [8]: 0.2 nM
- IC50 of IFNγ release, MLR; D15 [8]: ~0.0027 nM
- IC50 of IFNγ release, MLR; D16 [8]: ~0.012 nM
- % Blockade of IFNγ release, MLR; D1 [9]: 65%
- % Blockade of IFNγ release, MLR; D2 [9]: 66%
- % Blockade of IFNγ release, MLR; D3 [9]: 88%
- % Blockade of IFNγ release, MLR; D4 [9]: 36%
- % Blockade of IFNγ release, MLR; D5 [9]: 89%
- % Blockade of IFNγ release, MLR; D6 [9]: 82%
- % Blockade of IFNγ release, MLR; D7 [9]: 75%
- % Blockade of IFNγ release, MLR; D8 [9]: 65%
- % Blockade of IFNγ release, MLR; D9 [9]: 66%
- Inhibition of IFN-gamma Release IC50; Donor 6 [5]: 1.2e-11 Molar
- Inhibition of IFN-gamma Release IC50; Donor 7 [5]: 1.8e-11 Molar
- IC50 [6]: 0.038 nM
